# B1: C1ORF32 ECD-Fc (SEQ ID NO:42): human-mouse fusion protein: human C1ORF32 ECD fused to mouse immunoglobulin Fc (SEQ ID NO:42) (protein)
# chain: LQVTVPDKKKVAMLFQPTVLRCHFSTSSHQPAVVQWKFKSYCQDRMGESLGMSSTRAQSLSKRNLEWDPYLDCLDSRRTVRVVASKQGSTVTLGDFYRGREITIVHDADLQIGKLMWGDSGLYYCIITTPDDLEGKNEDSVELLVLGRTGLLADLLPSFAVEIMGSENLYFQGSGEPRGPTIKPCPPCKCPAPNLLGGPSVFIFPPKIKDVLMISLSPIVTCVVVDVSEDDPDVQISWFVNNVEVHTAQTQTHREDYNSTLRVVSALPIQHQDWMSGKEFKCKVNNKDLPAPIERTISKPKGSVRAPQVYVLPPPEEEMTKKQVTLTCMVTDFMPEDIYVEWTNNGKTELNYKNTEPVLDSDGSYFMYSKLRVEKKNWVERNSYSCSVVHEGLHNHHTTKSFSRTPGK
# modifications: Fusion protein human C1ORF32-ECD fused to mouse IgG2a Fc
# Legend:
# total splenocytes = experiment: Ex vivo recall responses of splenocytes, HY bone marrow transplantation model; type: in vivo, mouse
# Protocol: On week 8 post bone marrow cell transplantion, total splenocytes (5×10^5 cells/well) were cultured in the presence of medium alone (no stimulation), anti-CD3(1 ug/ml), DBY peptide (10 ug/ml), irradiated male splenocytes (5×10^5 cells/well), or irradiated female splenocytes (5×10^5 cells/well). The individual splenocyte samples were cultured separately in triplicate wells. For T cell proliferative response, the cultures were pulsed with 1 uCi of tritiated thymidine at 24 hours and harvested at 72 hours post culture initiation. The statistical analysis carried out on the data is one-way ANOVA followed by Dunnett's post test as compared to the mice receiving male CD45.1+ bone marrow cells plus Control Ig treatment, p-values *<0.05, **<0.01,***<0.001, and #<0.0001.
# On week 8 post bone marrow cell transplant, total splenocytes (5×10^5 cells/well) were cultured in the presence of medium alone (no stimulation), anti-CD3 (1 ug/ml), DBY peptide (10 ug/ml), irradiated male splenocytes (5×10^5 cells/well), or irradiated female splenocytes (5×10^5 cells/well). The individual splenocyte samples were cultured separately in triplicate wells. For the cytokine cultures, the supernatants were collected at 72 hours post culture initiation and the level of secreted cytokine was determined via LiquiChip. […]
# These same populations of cells were analyzed at week 8 within the spleen. […]
# [1] = tested on: healthy human skin transplanted onto beige-SCID mice; experiment: Humanized psoriasis model, human skin xenografts on beige-SCID mice; type: in vivo, mouse; details: IHC; vs PBS
# Excerpt: In this model, psoriasis is induced in xenotransplants of healthy human skin transplanted onto beige severe combined immunodeficiency (SCID) mice followed by intradermal (i.d.) injection of IL-2 enriched Peripheral Blood Mononuclear Cells (PBMCs) isolated from blood of psoriasis patients (Nickoloff, 1995; Wrone-Smith, 1996 Gilhar et al., 2002, 2006, 2011). The activity of these compounds was compared to that of Enbrel, a TNF inhibitor which is an approved biological drug for treatment of psoriasis. As a control for model robustness, we used dexamethasone, a steroid with suppressive effects on inflammatory cytokines and chemokines such as TNF-alpha and interferon-gamma which cause severe psoriasis. All treatments were administered intradermally, except for dexamethasone which was given topically.
# 2.2. Study Protocol A) Healthy human skin pieces with a width of 0.4 mm and surface area of 1.5×1.5 cm were provided from residual skin of routine plastic surgery procedures from the Plastic Surgery Department of the Rambam Medical Center, Israel. In addition, 20 mL blood samples were taken from psoriatic patients. B) Seventy (70) beige-severe combined immunodeficient mice (SCID) (weight ˜20-25 g) were included in this study. Normal healthy human donor skin was transplanted onto the beige-SCID mice as previously described (Nickoloff et al., 1995; Wrone-Smith, 1996; Gilhar et al., 2002, 2006, 2011; Kalish et al., 2009) and the mice were divided into 7 groups. C) Peripheral Blood Mononuclear Cells (PBMCs) isolated from psoriatic patients' blood were cultured in the presence of IL-2 [Prospec, 100 U/mL of RPMI 1640 media, 10% human AB serum (Sigma, St. Louis, Mo.), 1% glutamine, 1% antibiotics (media components; Biological Industries, Kibbutz Beit Haemeck, Israel)] for 14 days, as previously described (Gilhar et al, 2002). D) Four weeks following engraftment, each mouse was injected intra-dermally (i.d.) into the grafted skin lesion, with 1×10^7 activated allogeneic enriched PBMCs from psoriatic patients (FIG. 20). Cells from different psoriasis patients were equally distributed between treatment groups so that each patient is represented in each treatment group. E) On the day of PBMCs injection into the skin grafts, mice were divided randomly into treatment groups (n=9-10 mice per group) and administration of all drugs started (FIG. 20). All tested compounds including the vehicle were given intradermally (intralesional), three times a week, except for dexamethasone which was given topically for 14 consecutive days (Table 3).
# F) Twenty eight days after starting the injections and treatment, skin was harvested (FIG. 20). Grafts were analyzed for the following psoriatic parameters by histology: epidermal thickening (acanthosis), suprapapillary epidermal thinning (papillomatosis), hyperkeratosis, parakeratosis, orthokeratosis, agranulosis-hypogranulosis, appearance of neutrophils in the upper spinous layer or in the corneal cell layer—Munro microabscess, regular elongation of rete ridges, angiogenesis, edema and dilated tortuous blood vessels in the dermal papilla and mononuclear cell infiltrate in the papillary dermis. Epidermal thickness was measured as detailed below, and HLA-DR, ICAM-1, Ki-67 and immune infiltrates (anti-CD3 stain) were evaluated by immunohistochemistry (IHC).
# The entire skin graft was excised and placed in 10% formal saline overnight. Then, the specimens were place in 70% ethanol and were embedded according to the standard H&E protocol. Histological assessment of the skin grafts was performed by light microscopy and evaluated by two blinded observers [the second observer evaluated random slides (about 25% of all slides) to compare the data obtained by the first observer. […] Epidermal thickness was determined with an ocular micrometer at a minimum of 50 points along the epidermis selected to represent points of maximal and minimal thickness.
# Representative grafts were allocated for IHC analysis. […]
molecule,measurement,setting,value
B1,IL-10 and IL-4,total splenocytes; activation with irradiated male splenocytes,increased level
same,IL-10 and IL-4 secretion,"total splenocytes; week 8 splenocytes, in response to male or female splenocytes",significantly increased
same,infiltration of T cells (CD3 positive cells),[1],significant reduction
